# Assay results taken from patent US20220256794A1, “TERPENE SYNTHASES AND TRANSPORTERS” (The State of Israel, Ministry of Agriculture & Rural …, priority 2019, published 2022).
# B1: T-AG0100-1: Cannabis PTR/NRT transporter gene product, amino acid SEQ ID NO: 53 (protein)
# chain: MNMEVMSRDFDQSGGGKRGGNRAAFFVYIMEGLESMAFISNSASLVIYFFSYMNYSLTKSSTMLTNLLGTATLLSLLGGFISDTYLTRFATTLIFASIELMGYIVLLVQAHRSDLRPPKCLSITHQCEGASAGEAAILYTGLYLMALGTGGVKAALPALGADQFDPKKAKQLSTYFNWFIFSLTIGSILGVTLVVWISTDKGWDWAFAVCAIALLLSIFFISLGNPFYRNNLPKGSPLLRFLRVFVASFRNRKLPIPENADELHEIYQDKEDDNLHHEILQRTDQFKFLDRAAVIRRTEDDDNDGSNSGSEWRVCTVTEVEETKILIRMLPIILTTIFMNTCLAQLQTFSVQQSVTMDRDFIGFEIPGPSVPAIPLLFMFILIPLYDRVFVPIARRVTGIPTGISHLQRIGIGLVLSAISMTVAGFVEKKRRNVAIQHDMVDSQDALPISVFWLGYQYAIFGAADMFTLVGMLEFFYAESSAGMKALSTAISWCSLAFGYYLSSVVVEIVNKVSGGWLANNNLNRDKLENFYWLLAGLSVVNFGVYVMCASWYKYKNVEMIKKDDAST
# modifications: ABC+PTR Transporter amino acid sequence (of the 12 identified gene products)
# B2: T-790-1: Cannabis ABC-B transporter gene product, amino acid SEQ ID NO: 46 (protein)
# chain: MDNKTNKHRGGNGDGDDNEDQDQEDTKKNNNNNNSNKVSLLKLFSFADFYDYVLMGIGTIGAIIHGASVPIFFIFFGKLINVIGMAYLFPKEASHKVAKYSLDFVYLSIAILFSSWTEVACWMHTGERQAAKMRMAYLRAMLSQDISLFDTEASTGEVISAITSDIIVVQDALSEKVGNFLHYISRFVVGFIVGFARVWQISLVTLSIVPLIALAGGVYAYIATGLIARVRKSYVKAGEIAEEVIGNVRTVQAFAGEEKAVKMYTSALAHTYMYGRKAGLAKGLGLGFMHCTLFLSWSLLVWYVSIVVHKSIANGGESFTTMLNVVIAGLSLGQAALDISAFVRAKAAAYPIFAMIERNTASKSSAMSGRKLGKLEGHIQFNNVTFSYPSRPDVTIFNKLSLDIPSGKIVALVGGSGSGKSTVISLIERFYEPLSGEILLDGNNIKELDLKWMRQQIGLVNQEPALFATSIRENILYGKDEASLDEITRAAKLSEAISFINNLPERFETQVGERGIQLSGGQKQRIAISRAIVKNPSILLLDEATSALDAESEKSVQEALDRVMVGRTTVVVAHRLSTIRNADIIAVVQEGKIVETGCHDELISNPNSVYSSLVQLQEAAPLQRNSSLGRPPSIKFSRELSRTTTSFGASFRSDKDSISRVGADGGAVEPVKTTNVSAKRLYSMIGPDWLYGLCGTICAFIAGAQMPLFALGISHALVSYYMDWDTTKHEVKKISILFCCGAVVTVIVHGIEHLCFGTMGERLTLRVRERMFSAMLRNEIAWFDDTNNTSSMLSSRLESDATLLRTIVVDRSTILLQNVGLVVASFIIAFLLNWRITLVVLATYPLVISGHISEKLFMQGYGGNLSKAYLKANMLAGEAVSNIRTVAAFCAEQKVLDLYARELVEPSKRSFTRGQIAGIFYGISQFFIFSSYGLALWYGSVLMGKELSSFKSVMKSFMVLIVTALAMGETLALAPDLLKGNQMVASVFEVLDRKTEVSGDSGEELASVDGTIELRDIHFSYPSRPDVVIFKDFNLKVRSGKSMALVGQSGSGKSSVISIILRFYDPTSGKVLIDGKDMKKLKLKSLRKHIGLVQQEPALFATSIYENILYGKEGASESEVIEAAKLANAHSFISALPEGYSTKVGERGVQLSGGQRQRVAIARAVLKNPEILLLDEATSALDVESERVVQQALDRLMKNRTTIMVAHRLSTIKNADQISVIQDGKIIEQGTHSTLIDNTNGPYYKLINIQQQQQQQL
# modifications: ABC+PTR Transporter amino acid sequence (of the 12 identified gene products)
# B3: T-792-1: Cannabis ABC-G transporter gene product, amino acid SEQ ID NO: 47 (protein)
# chain: MASVTPSTTIDQEHYHNKKVTISRTTSTTSSNNNTNHGNPRITVVEIETANNRNASYRSSIFGADHEVSLPVVEDHQGVFLTWQDLWVTVSSGKNSNRPILRGLTGYAKPGELLAIMGPSGCGKSTLLDALAGRLNANTRQSGDILINGNKQTLAYGTSAYVTQEDTLLTTLTVREAVHYSAQLQLPDSMSSAEKKERAEMTIREMGLTDAVNTRIGGSGLGTGSKGLSGGQKRRVSICIEILTRPKLLFLDEPTSGLDSAASYYVMSSIASLDIQSRRGGGAGGRRTVVASIHQPSSEVFQLFNTLCLLSAGKIVYFGPASAANEFFTMSGFPCPSLQNPSDHFLKTINKDFDKVQKDLEQGLPIRGRPTVEEAIETLVKSYKASENCQLVQQQVSQICNKKNKSVGLMEKKRSHAGFISQCGVLTRRSFKNMYRDLGYYWFRLVIYIGLAIGLGTIFCNIGHSDGSVEARASLIMYVASFLTFMTIGGFPSFVEDMKVFGRERLNGHYSVTSFVMGNTISAQPYLVLIALIPGALAYFPPGLRGGFEHFIYFVLVLYACMMLVESLMMIVAALVPNFLLGIITGAGIQGFMMLAGGFFRLPNDLPDPFWRYPVFYISFHRYAFQGLYKNEFKGLMFVDEILGKSHKISGDEILRNKYQVNMSYSKWVDFVLLLSMVFAYRVMFLLILKISENYKTISAAFAFGRRKPSTQVMENPTATPPHA
# modifications: ABC+PTR Transporter amino acid sequence (of the 12 identified gene products)
# Key:
# yeast cells [1] = test: Yeast growth (turbidity A600) in the presence of CBD; format: cell-based, Saccharomyces cerevisiae (strain Y1HGold); conditions: 0.5 mM CBD; for inhibition of yeast growth in response to CBD, transporter-expressing yeast vs control yeast: 7-12 hours
# Experimental: (§1) The genes were expressed in yeast and tobacco. For yeast, the ABC and PTR Transporter genes were synthesized by the TWIST Co, cloned and expressed (individually) in the yeast expression vector pESC-URA (Agilent Technologies) for expression under the yeast native gal-10 promoter. Competent Saccharomyces cerevisiae (strain Y1HGold, CloneTech) cells were prepared, transformed by each of the resulting vector and selected on yeast synthetic media lacking Uracil as previously described [GietzR. D., Methods Mol. Biol. (2014) 1205:1-12].
# An alternative method is to measure the yeast growth as a function of turbidity. Transformed yeast cells were grown on URA-glucose broth at 30° C. at 200 RPM, and after 24 hours 100 μl was used to inoculate 5 ml of URA-galactose broth in the same conditions till O.D.600 of 1.5. The yeast was further diluted to OD600=0.05 with 10 ml URA-galactose, and divided into two 5 ml aliquots into separate 50 ml falcon tubes. The first falcon (control) was added 78 μl acetonitrile (the solvent that the CBD was dissolved in), and the second one was added 78 μl CBD solution in acetonitrile (final CBD concentration=0.5 mM). […]
# tobacco BY-2 cells [2] = test: CBD-induced cell death of tobacco BY-2 cells (FDA fluorescence); format: cell-based; conditions: 0.5 mM CBD
# Source text: (§2) For tobacco, the ABC and PTR Transporter genes were cloned into a plant binary expression vector (pGreen 0029) via Agrobacterium mediated transformation as previously described [Cohen, S. et at, Nat. Commun. (2014) 5:4026]. These genes were cloned between the cauliflower mosaic virus (CaMl,) 35S promoter and the polyadenylation signal from the nopaline synthase gene and inserted into tobacco BY2 cells and plants (var. Samson) via stable transformation..
# The toxic effect and cell death activity of terpenes and cannabinoids in tobacco was assessed on cell cultures as follows: 7-day-old suspension cultured BY-2 tobacco cells at a 5-fold dilution in logarithmic growth phase, incubated in Gamborg B5 medium, was incubated in the presence of 0.5 mM CBD for 48 hours as previously described [Sirikantaramas S. et al., Plant Cell Physiol. (2005) 46:1578-1582].
# Cell death in the samples was evaluated using the cell viability indicator fluorescein diacetate (FDA, Sigma-Aldrich). Cell suspension (2.5 mL) was stained with 50 μL of 0.5% fluorescein diacetate (FDA) dissolved in acetone for 10 min. The cells were rinsed three times with I mL isotonic medium to remove excess staining solution. Viability was assessed immediately using an Olympus BX50 fluorescence microscope equipped with a suitable barrier filter (excitation 460-490 nm and emission 510 nm). FDA staining of viable cells results in bright green fluorescence, while nonviable cells remain colorless.
# yeast cells [3] = test: Uptake of CBD into yeast cells; format: cell-based, Saccharomyces cerevisiae (strain Y1HGold); conditions: 0.5 mM CBD; for net uptake of CBD into yeast cells compared to control (empty vector) yeast: three hour incubation, FIG. 3A and FIG. 4
# Experimental: as §1
# An additional strategy for determining transporter function is to measure the amount of exogenous CBD taken up and incorporated into the cells.
# Transformed yeast cells were grown on URA-glucose broth at 30° C. at 200 RPM, and after 24 hours 100 μl was used to inoculate 5 ml of URA-galactose broth in the same conditions till OD600 of […]. The yeast was incubated with 0.5 mM CBD for 2-8 hours in 30° C. at 100 RPM, then centrifuged at 15000 g for 1 minute, and washed twice with 1 ml distilled water. The pellet was weighed and underwent HPLC analysis to determine the pellet's CBD content. The pellet was extracted in 1 ml methanol, and following centrifugation and filter was analyzed by HPLC using a diode-array detector and CBD was quantified against a commercial standard.
# tobacco BY-2 cells [4] = test: Uptake of CBD into tobacco BY-2 cells; format: cell-based; conditions: 0.5 mM CBD
# Source text: as §2
# […] The pellet was weighed and underwent HPLC analysis to determine the pellet CBD content, as indicated above.
molecule,measurement,setting,value
"C=C(C)[C@@H]1CCC(C)=C[C@H]1c1c(O)cc(CCCCC)cc1O [CBD, Cannabidiol, reference compound]",growth with CBD as % of growth without CBD,"yeast cells [1]; control (empty vector) yeast, 7-12 hours after initiation, FIG. 2",42%
same,fluorescence (FDA viability) of control BY2 cells in the presence of CBD,"tobacco BY-2 cells [2]; control BY2 cells, FIG. 6A top",small decrease
B1,net uptake of CBD into yeast cells compared to control (empty vector) yeast,yeast cells [3],reduced net uptake of CBD
same,"inhibition of yeast growth in response to CBD, transporter-expressing yeast vs control yeast",yeast cells [1]; FIG. 2,reduced inhibition of growth
same,"growth inhibition by CBD, time course of yeast growth vs empty vector yeast","yeast cells [1]; 12 hour period, FIGS. 1A-B",reduced growth inhibition
same,effect on the uptake of CBD in tobacco BY-2 cells,"tobacco BY-2 cells [4]; 4 hour uptake, FIG. 5",strong effect
same,fluorescence (FDA viability) of transporter-expressing BY2 cells in the presence of CBD,tobacco BY-2 cells [2]; FIG. 6A bottom,strong decrease
same,cell death in response to CBD of BY-2 cells expressing the transporter,tobacco BY-2 cells [2]; FIGS. 6A-B,increased cell death
B2,net uptake of CBD into yeast cells compared to control (empty vector) yeast,yeast cells [3],reduced net uptake of CBD
same,"inhibition of yeast growth in response to CBD, transporter-expressing yeast vs control yeast",yeast cells [1]; FIG. 2,reduced inhibition of growth
same,effect on the uptake of CBD in tobacco BY-2 cells,"tobacco BY-2 cells [4]; 5 hour uptake, FIG. 7",strong effect
B3,CBD levels in yeast cells compared to the control,"yeast cells [3]; 5 hour period, FIG. 3B",increase in CBD levels
same,"inhibition of yeast growth in response to CBD, transporter-expressing yeast vs control yeast",yeast cells [1]; FIG. 2,reduced inhibition of growth
